Assay results as given in article PMC9035363.

Columns and labels:
[1] = target: SARS-CoV-2 S B.1.1.7 on CHO cells (SARS-CoV-2) (UniProt P0DTC2)
[2] = target: SARS-CoV-2 S B.1.351 on CHO cells (SARS-CoV-2) (UniProt P0DTC2)

## LY-CoV1404 (bebtelovimab), full-length human IgG1 mAb (antibody)
[1]
  VSV pseudovirus neutralisation IC50: 1 ng/mL
  VSV pseudovirus neutralisation IC90: 9 ng/mL
  lentiviral pseudovirus neutralisation IC50: 4 ng/mL
  lentiviral pseudovirus neutralisation IC90: 11 ng/mL
[2]
  VSV pseudovirus neutralisation IC50: 2 ng/mL
  VSV pseudovirus neutralisation IC90: 9 ng/mL
  lentiviral pseudovirus neutralisation IC50: 3 ng/mL
  lentiviral pseudovirus neutralisation IC90: 9 ng/mL
